Results published in the supplement of paper PMC7877785.
± gives the uncertainty stated by the source.

Experiment: self-splicing fitness, log relative to wild type (ln ratio); higher = more splicing; Tetrahymena group I intron in knt gene, E. coli kanamycin selection, DiMSum; sequences stand for … in CUCUCU…GGAGGGAAAAGUUAUCAGGCAUGCACCUGGUAGCUAGUCUUUAAACCAAUAGAUUGCAUCGGUUUAAAAGGCAAGACCGUCAAAUUGCGGGAAAGGGGUCAACAGCCGUUCAGUACCAAGUCUCAGGGGAAACUUUGAGAUGGCCUUGCAAAGGGUAUGGUAAUAAGCUGACGGACAUGGUCCUAACCACGCAGCCAAGUCCUAAGUCAACAGAUCUUCUGUUGAUAUGGAUGCAGUUCACAGACUAAAUGUCGGUCGGGGAAGAUGUAUUCUUCUCAUAAGAUAUAGUCGGACCUCUCCUUAAUGGGAGCUAGCGGAUGAAGUGAUGCAACACUGGAGCCGCUGGGAACUAAUUUGUAUGCGAAAGUAUAUUGAUUAGUUUUGGAGUACUCGUGGUCG
How it was run: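 Fitness was computed with DiMSum as the error-weighted combination of replicate fold changes, kanamycin versus none, each normalised to wild type. The library randomised all eight intron nucleotides of the P1ex region, with the intron placed in the knt kanamycin-resistance gene on pET-22b(+) in E. coli BL21(DE3). Six replicate transformations were grown overnight at 37°C or 30°C on LB agar with or without 25 μg/mL kanamycin, plus 100 μg/mL carbenicillin, 50 μM IPTG and 0.2% rhamnose. Pooled colonies were amplicon-sequenced on an Illumina HiSeq 2500.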

Sequence	self-splicing fitness (ln) (30 °C)	self-splicing fitness (ln) (37 °C)
GGCAAGCAAUAUUACGUGUC	-2.42 ± 0.11	-3.08 ± 0.17
CGCAAGCAAUAUUACGUUUA	-2.8 ± 0.12	-1.98 ± 0.095
AUCCAGCAAUAUUACGGGCU	-3.07 ± 0.16	-2.64 ± 0.17
UCGCAGCAAUAUUACGCAUG	-3.79 ± 0.33	-2.56 ± 0.27
GGAAAGCAAUAUUACGAUAA	-1.32 ± 0.14	-0.198 ± 0.16
UAGUAGCAAUAUUACGCAGG	-2.8 ± 0.22	-1.74 ± 0.23
CCAUAGCAAUAUUACGAUAA		-3.15 ± 0.4
CGCAAGCAAUAUUACGCACA	-0.694 ± 0.096	-0.825 ± 0.1
GAAUAGCAAUAUUACGACCC	0.178 ± 0.39	
UCAGAGCAAUAUUACGGGCC	-3.69 ± 0.44	
UGUUAGCAAUAUUACGGUUU	-2.82 ± 0.15	-2.02 ± 0.15
GGAUAGCAAUAUUACGCCAG	-2.63 ± 0.32	-0.526 ± 0.34
UGCAAGCAAUAUUACGGGGC	-3.59 ± 0.27	-2.56 ± 0.24
UGUGAGCAAUAUUACGCAAA	-3.07 ± 0.37	-1.8 ± 0.25
UCAGAGCAAUAUUACGCUUC	-1.74 ± 0.24	-2.73 ± 0.48
UGUAAGCAAUAUUACGCACU	-0.554 ± 0.094	-0.349 ± 0.12
UAUAAGCAAUAUUACGUUAC	-3.45 ± 0.21	-2.46 ± 0.23
CUCCAGCAAUAUUACGGACU	-2.61 ± 0.24	-2.07 ± 0.33
CCGUAGCAAUAUUACGGUUG	-3.89 ± 0.24	-1.73 ± 0.19
CUGAAGCAAUAUUACGUACC	-3.37 ± 0.36	
UGUCAGCAAUAUUACGCACA	-0.467 ± 0.083	-0.355 ± 0.093
AUCCAGCAAUAUUACGCAUG	-3.68 ± 0.27	-0.669 ± 0.13
GGAGAGCAAUAUUACGGGGC	-3.01 ± 0.27	-2.71 ± 0.44
UCCUAGCAAUAUUACGUAGU	-2.62 ± 0.15	-1.29 ± 0.18
GGUCAGCAAUAUUACGGCUC	-2.39 ± 0.21	-1.68 ± 0.3

Sequence	self-splicing fitness (ln) (30 °C)	self-splicing fitness (ln) (37 °C)
CCGCAGCAAUAUUACGGUGG	-3.11 ± 0.12	-3.48 ± 0.2
CCUGAGCAAUAUUACGAGGU	-2.72 ± 0.17	-1.99 ± 0.15
GUUGAGCAAUAUUACGACAU	-0.358 ± 0.014	-0.067 ± 0.034
CUCGAGCAAUAUUACGGUUC	-3.14 ± 0.22	-2.49 ± 0.3
CUGAAGCAAUAUUACGACAU	-0.393 ± 0.012	0.115 ± 0.033
UGGUAGCAAUAUUACGUUUA	-1.58 ± 0.11	-0.847 ± 0.1
AAAGAGCAAUAUUACGCUCC	-2.57 ± 0.3	-2 ± 0.41
CUGUAGCAAUAUUACGCGAA	-1.86 ± 0.35	-2.26 ± 0.45
UGCGAGCAAUAUUACGGUUG	-1.51 ± 0.16	-1.82 ± 0.26
CCAGAGCAAUAUUACGGUGC	-2.81 ± 0.14	-2.28 ± 0.23
AUGCAGCAAUAUUACGUUGU	-4.08 ± 0.16	-3.03 ± 0.15
UGCUAGCAAUAUUACGGUUC	-2.49 ± 0.16	-1.69 ± 0.14
GAGAAGCAAUAUUACGCACG	-0.497 ± 0.14	-0.392 ± 0.15
GUUCAGCAAUAUUACGGAGC	-2.39 ± 0.32	-1.53 ± 0.42
UCGUAGCAAUAUUACGCGCA	-0.601 ± 0.11	-0.0623 ± 0.15
AGCUAGCAAUAUUACGUUUG	-4.09 ± 0.24	-0.747 ± 0.15
AUGGAGCAAUAUUACGGCUG	-2.48 ± 0.17	-1.84 ± 0.34
CCCAAGCAAUAUUACGUACG	-3.55 ± 0.21	-2.9 ± 0.15
AGCAAGCAAUAUUACGUGGU	-2.79 ± 0.12	-3.13 ± 0.18
CGUUAGCAAUAUUACGGUUA	-1.55 ± 0.21	-1.66 ± 0.17
AUGGAGCAAUAUUACGUGUU	-3.69 ± 0.15	-3.73 ± 0.24
UUCCAGCAAUAUUACGUCUG	-2.71 ± 0.15	-2.28 ± 0.24
AAAAAGCAAUAUUACGUGGG	-3.51 ± 0.13	-2.03 ± 0.13
GAUGAGCAAUAUUACGCUGG	-2.08 ± 0.18	-1.02 ± 0.3
CAACAGCAAUAUUACGUCGU	-3.65 ± 0.12	-2.16 ± 0.11

Sequence	self-splicing fitness (ln) (30 °C)	self-splicing fitness (ln) (37 °C)
UCUAAGCAAUAUUACGUAUA	-2.55 ± 0.17	-1.45 ± 0.12
AUCCAGCAAUAUUACGCUGA	-1.36 ± 0.097	-1.22 ± 0.13
UGUAAGCAAUAUUACGCCUA	-0.337 ± 0.14	0.331 ± 0.15
GGCGAGCAAUAUUACGUCAC	-3.01 ± 0.23	
CGCAAGCAAUAUUACGGUAC	-4.99 ± 0.45	-3.6 ± 0.16
CUUCAGCAAUAUUACGCGAC	-2.88 ± 0.31	-1.75 ± 0.41
UUACAGCAAUAUUACGAGAG	-1.48 ± 0.11	-2.4 ± 0.15
GGGGAGCAAUAUUACGAUCG	-1.44 ± 0.2	-0.888 ± 0.3
CGAGAGCAAUAUUACGGCAC	-3.72 ± 0.3	-2.36 ± 0.23
AUUAAGCAAUAUUACGGGAU	-2.07 ± 0.15	-0.652 ± 0.12
CCCAAGCAAUAUUACGCCCG	-2.76 ± 0.33	-2.44 ± 0.42
AGCUAGCAAUAUUACGUAUA	-2.28 ± 0.15	-2.12 ± 0.23
UACUAGCAAUAUUACGAUAU	-3.18 ± 0.17	-2.36 ± 0.17
AACAAGCAAUAUUACGACAA	-1.28 ± 0.12	-1.18 ± 0.098
CGUAAGCAAUAUUACGAAGA	-3.07 ± 0.31	
CACAAGCAAUAUUACGGGCG	-0.358 ± 0.06	0.319 ± 0.07
UCCUAGCAAUAUUACGCGCG	-4.03 ± 0.29	-2.45 ± 0.31
CGUUAGCAAUAUUACGGGAG	-3.32 ± 0.2	-2.39 ± 0.17
AAAGAGCAAUAUUACGCGGA	-3.29 ± 0.33	-2.33 ± 0.22
GUCUAGCAAUAUUACGUAGA	-1.69 ± 0.14	-0.93 ± 0.2
GCUGAGCAAUAUUACGGUCC	-2.99 ± 0.28	-0.889 ± 0.26
AGAUAGCAAUAUUACGGUAU	-1.43 ± 0.098	-0.614 ± 0.1
CAACAGCAAUAUUACGGUCG	-0.273 ± 0.041	0.0819 ± 0.056
AUGAAGCAAUAUUACGGCUA	0.423 ± 0.092	0.486 ± 0.11
GGUAAGCAAUAUUACGCCGA	-2.95 ± 0.43	-0.926 ± 0.25

Sequence	self-splicing fitness (ln) (30 °C)	self-splicing fitness (ln) (37 °C)
GGGAAGCAAUAUUACGCGGG	-1.49 ± 0.23	-1.8 ± 0.25
GUAUAGCAAUAUUACGAGAA		-2.32 ± 0.49
UAACAGCAAUAUUACGCAAU	-2.89 ± 0.15	-0.816 ± 0.15
UAAGAGCAAUAUUACGUCAU	-2.21 ± 0.14	-2.22 ± 0.24
GCGGAGCAAUAUUACGUAAC	-1.54 ± 0.34	
CAUAAGCAAUAUUACGCUUC	-2.57 ± 0.27	-2.19 ± 0.3
GCCUAGCAAUAUUACGUUAC	-2.72 ± 0.2	-1.49 ± 0.18
CGUCAGCAAUAUUACGAACU	-0.352 ± 0.095	-0.0116 ± 0.11
UCCUAGCAAUAUUACGCGAU	-3.18 ± 0.28	-2.65 ± 0.5
AUUGAGCAAUAUUACGCCUA	-1.99 ± 0.2	-1.52 ± 0.2
CUUGAGCAAUAUUACGAGGC	-2.91 ± 0.26	-2.89 ± 0.27
AGUCAGCAAUAUUACGCAGU	-1.89 ± 0.23	-0.11 ± 0.17
AGGCAGCAAUAUUACGGGAU	-2.85 ± 0.16	-1.39 ± 0.14
GUAAAGCAAUAUUACGCUCU	-2.11 ± 0.19	-0.206 ± 0.24
UGGGAGCAAUAUUACGAUAA	-0.547 ± 0.44	
CCGUAGCAAUAUUACGAGCC		-1.01 ± 0.42
AGCCAGCAAUAUUACGCACA	-1.96 ± 0.13	-0.518 ± 0.11
GGAAAGCAAUAUUACGCACG	-1.16 ± 0.19	0.0479 ± 0.17
GCGAAGCAAUAUUACGAUGG	-2.12 ± 0.13	-0.641 ± 0.14
CAUAAGCAAUAUUACGUAAG	0.111 ± 0.062	0.3 ± 0.079
CUUAAGCAAUAUUACGGGGG	-3.65 ± 0.2	-1.26 ± 0.23
CCCCAGCAAUAUUACGCUUG	-3.52 ± 0.17	-3.06 ± 0.2
UCGAAGCAAUAUUACGAUAG	-2.95 ± 0.25	-1.14 ± 0.18
